Test results reported in patent publication US20110300138A1 (published 2011).
Read-outs that look alike come from different tables or passages of the source.

Legend:
Assay in all cases: cell-based or functional assay
[1] = molecular target: TSHR with Asp232 mutated to Ala expressed in CHO cells (human) (UniProt P16473)
[2] = molecular target: TSHR with Glu107 mutated to Ala expressed in CHO cells (human) (UniProt P16473)
[3] = molecular target: TSHR with Lys250 mutated to Ala (expressed in CHO cells) (human) (UniProt P16473)
[4] = molecular target: TSHR with Phe130 mutated to Ala, expressed in CHO cells (human) (UniProt P16473)
[5] = molecular target: TSHR with Trp258 mutated to Ala (human) (UniProt P16473)
Chain of TSHR with Trp258 mutated to Ala (human) (P16473 other isoform, or with tags, fused parts or gaps, change not shown): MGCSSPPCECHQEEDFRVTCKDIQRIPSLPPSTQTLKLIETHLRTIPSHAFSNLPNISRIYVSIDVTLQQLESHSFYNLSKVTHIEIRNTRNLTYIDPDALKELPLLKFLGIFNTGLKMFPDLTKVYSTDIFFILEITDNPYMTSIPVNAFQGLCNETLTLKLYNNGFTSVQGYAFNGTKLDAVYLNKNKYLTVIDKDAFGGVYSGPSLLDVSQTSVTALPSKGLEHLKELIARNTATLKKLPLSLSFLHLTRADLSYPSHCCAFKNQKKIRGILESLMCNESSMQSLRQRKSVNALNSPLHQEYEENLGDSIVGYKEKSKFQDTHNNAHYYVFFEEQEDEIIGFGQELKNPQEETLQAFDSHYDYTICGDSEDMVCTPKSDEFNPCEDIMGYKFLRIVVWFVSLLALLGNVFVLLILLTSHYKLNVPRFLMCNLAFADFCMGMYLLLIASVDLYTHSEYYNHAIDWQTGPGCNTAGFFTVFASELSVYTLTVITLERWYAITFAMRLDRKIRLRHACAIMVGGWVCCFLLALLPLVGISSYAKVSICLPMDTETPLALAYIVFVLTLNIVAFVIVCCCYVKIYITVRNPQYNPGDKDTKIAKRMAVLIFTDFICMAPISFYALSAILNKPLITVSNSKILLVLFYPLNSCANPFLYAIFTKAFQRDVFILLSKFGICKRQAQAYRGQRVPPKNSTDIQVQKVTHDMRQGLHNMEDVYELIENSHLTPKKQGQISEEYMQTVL

Chain of TSHR with Asp232 mutated to Ala expressed in CHO cells (human) (P16473 other isoform, or with tags, fused parts or gaps limits assumed, change not shown): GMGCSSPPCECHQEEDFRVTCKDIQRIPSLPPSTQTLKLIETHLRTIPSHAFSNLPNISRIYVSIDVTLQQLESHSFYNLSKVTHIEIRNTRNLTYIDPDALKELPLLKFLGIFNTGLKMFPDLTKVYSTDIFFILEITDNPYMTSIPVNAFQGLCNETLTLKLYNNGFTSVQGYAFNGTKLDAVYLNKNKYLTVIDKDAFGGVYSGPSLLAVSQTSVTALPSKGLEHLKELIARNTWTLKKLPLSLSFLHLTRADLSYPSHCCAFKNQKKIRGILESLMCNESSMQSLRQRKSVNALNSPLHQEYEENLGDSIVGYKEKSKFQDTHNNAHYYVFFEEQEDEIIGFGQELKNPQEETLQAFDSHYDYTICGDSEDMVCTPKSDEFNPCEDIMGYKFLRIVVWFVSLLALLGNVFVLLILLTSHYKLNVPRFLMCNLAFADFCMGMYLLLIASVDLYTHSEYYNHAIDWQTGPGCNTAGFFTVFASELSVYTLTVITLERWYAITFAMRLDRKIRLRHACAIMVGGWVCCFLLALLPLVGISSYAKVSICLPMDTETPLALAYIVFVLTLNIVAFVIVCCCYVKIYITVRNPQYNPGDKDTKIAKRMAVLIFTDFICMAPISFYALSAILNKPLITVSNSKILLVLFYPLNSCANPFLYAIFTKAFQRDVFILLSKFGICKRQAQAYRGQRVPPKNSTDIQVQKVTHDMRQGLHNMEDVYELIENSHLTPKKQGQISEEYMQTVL
Chain of TSHR with Phe130 mutated to Ala, expressed in CHO cells (human) (P16473 other isoform, or with tags, fused parts or gaps, change not shown): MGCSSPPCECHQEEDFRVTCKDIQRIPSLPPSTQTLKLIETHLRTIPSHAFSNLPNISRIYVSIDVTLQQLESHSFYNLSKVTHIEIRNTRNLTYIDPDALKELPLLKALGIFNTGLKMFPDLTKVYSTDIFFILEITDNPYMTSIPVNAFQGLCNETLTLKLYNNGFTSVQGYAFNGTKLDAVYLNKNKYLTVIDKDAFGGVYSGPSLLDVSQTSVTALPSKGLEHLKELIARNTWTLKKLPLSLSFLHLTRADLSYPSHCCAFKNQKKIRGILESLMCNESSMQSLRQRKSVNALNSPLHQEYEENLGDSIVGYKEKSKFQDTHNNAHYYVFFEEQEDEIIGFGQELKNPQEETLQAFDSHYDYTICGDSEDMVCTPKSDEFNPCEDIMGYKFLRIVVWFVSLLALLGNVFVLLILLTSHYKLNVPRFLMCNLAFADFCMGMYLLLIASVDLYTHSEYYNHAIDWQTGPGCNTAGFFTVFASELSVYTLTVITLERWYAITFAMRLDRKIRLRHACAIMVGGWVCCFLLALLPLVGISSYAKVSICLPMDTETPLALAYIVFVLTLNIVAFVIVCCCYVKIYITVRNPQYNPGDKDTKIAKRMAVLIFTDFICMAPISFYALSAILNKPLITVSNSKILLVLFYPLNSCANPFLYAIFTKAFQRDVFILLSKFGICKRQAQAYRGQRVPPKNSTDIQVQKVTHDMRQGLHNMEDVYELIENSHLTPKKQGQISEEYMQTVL
Chain of TSHR with Glu107 mutated to Ala expressed in CHO cells (human) (P16473 other isoform, or with tags, fused parts or gaps, change not shown): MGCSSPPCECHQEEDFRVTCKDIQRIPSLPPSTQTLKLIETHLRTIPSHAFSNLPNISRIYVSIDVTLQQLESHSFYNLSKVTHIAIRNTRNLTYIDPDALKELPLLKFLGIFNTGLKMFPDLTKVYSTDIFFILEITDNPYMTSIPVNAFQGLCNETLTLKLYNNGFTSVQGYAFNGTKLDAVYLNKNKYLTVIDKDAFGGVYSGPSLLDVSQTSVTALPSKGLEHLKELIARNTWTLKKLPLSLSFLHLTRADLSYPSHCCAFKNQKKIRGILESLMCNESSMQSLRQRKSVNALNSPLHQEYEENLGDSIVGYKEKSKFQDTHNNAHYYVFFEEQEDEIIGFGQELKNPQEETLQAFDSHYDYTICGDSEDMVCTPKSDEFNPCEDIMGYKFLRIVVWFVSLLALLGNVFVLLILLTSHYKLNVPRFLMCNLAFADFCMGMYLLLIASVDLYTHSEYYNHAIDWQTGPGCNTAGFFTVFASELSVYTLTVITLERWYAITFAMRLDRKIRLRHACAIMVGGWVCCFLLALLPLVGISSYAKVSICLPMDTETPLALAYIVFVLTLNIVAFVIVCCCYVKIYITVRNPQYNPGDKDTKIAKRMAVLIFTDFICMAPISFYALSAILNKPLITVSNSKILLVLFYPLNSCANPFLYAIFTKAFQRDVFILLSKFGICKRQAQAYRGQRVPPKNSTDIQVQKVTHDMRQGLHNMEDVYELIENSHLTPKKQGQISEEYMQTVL
Chain of TSHR with Lys250 mutated to Ala (expressed in CHO cells) (human) (P16473 other isoform, or with tags, fused parts or gaps, change not shown): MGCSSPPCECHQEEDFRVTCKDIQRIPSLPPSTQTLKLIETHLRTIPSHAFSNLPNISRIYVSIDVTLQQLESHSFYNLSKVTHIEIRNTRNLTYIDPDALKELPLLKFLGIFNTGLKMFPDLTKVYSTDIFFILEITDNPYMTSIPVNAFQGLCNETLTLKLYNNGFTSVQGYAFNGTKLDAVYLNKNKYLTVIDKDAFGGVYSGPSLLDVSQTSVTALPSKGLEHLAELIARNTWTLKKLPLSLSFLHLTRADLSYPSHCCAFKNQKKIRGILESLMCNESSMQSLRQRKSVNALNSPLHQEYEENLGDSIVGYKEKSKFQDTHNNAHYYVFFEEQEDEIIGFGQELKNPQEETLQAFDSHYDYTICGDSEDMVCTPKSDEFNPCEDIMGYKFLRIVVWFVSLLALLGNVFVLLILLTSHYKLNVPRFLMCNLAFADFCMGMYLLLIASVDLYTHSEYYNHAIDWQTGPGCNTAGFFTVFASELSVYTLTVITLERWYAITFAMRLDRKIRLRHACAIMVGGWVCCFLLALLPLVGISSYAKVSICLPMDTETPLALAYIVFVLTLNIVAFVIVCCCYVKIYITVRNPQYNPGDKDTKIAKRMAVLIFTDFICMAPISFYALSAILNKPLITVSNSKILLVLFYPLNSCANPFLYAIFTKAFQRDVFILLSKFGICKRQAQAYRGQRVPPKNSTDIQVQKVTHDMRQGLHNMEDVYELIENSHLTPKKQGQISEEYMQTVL

Work on TSH (ligand) yielded a Cyclic AMP produced, mutated TSHR, TSH 0.01 ng/mL (Experiment 1) [1] of 1.4 pmol/mL, a Cyclic AMP produced, mutated TSHR, TSH 0.01 ng/mL (Experiment 2) [1] of 2.58 pmol/mL and a Cyclic AMP produced, mutated TSHR, TSH 0.03 ng/mL (Experiment 1) [1] of 2.16 pmol/mL. The Cyclic AMP produced, mutated TSHR, TSH 0.03 ng/mL (Experiment 2) [1] was 4.1 pmol/mL, the Cyclic AMP produced, mutated TSHR, TSH 0.1 ng/mL (Experiment 1) [1] was 5.39 pmol/mL and the Cyclic AMP produced, mutated TSHR, TSH 0.1 ng/mL (Experiment 2) [1] was 9.44 pmol/mL. The Cyclic AMP produced, mutated TSHR, TSH 0.3 ng/mL (Experiment 1) [1] was 15.1 pmol/mL, the Cyclic AMP produced, mutated TSHR, TSH 0.3 ng/mL (Experiment 2) [1] was 23.5 pmol/mL and the Cyclic AMP produced, mutated TSHR, TSH 1 ng/mL (Experiment 1) [1] was 31.9 pmol/mL. The Cyclic AMP produced, mutated TSHR, TSH 1 ng/mL (Experiment 2) [1] was 44.4 pmol/mL, the Cyclic AMP produced, mutated TSHR, TSH 3 ng/mL (Experiment 1) [1] was 41 pmol/mL and the Cyclic AMP produced, mutated TSHR, TSH 3 ng/mL (Experiment 2) [1] was 62 pmol/mL. It also gave a Mutated/Wild type (%) of cyclic AMP produced, TSH 0.01 ng/mL, Experiment 1 [1] of 83%, a Mutated/Wild type (%) of cyclic AMP produced, TSH 0.01 ng/mL, Experiment 2 [1] of 62% and a Mutated/Wild type (%) of cyclic AMP produced, TSH 0.03 ng/mL, Experiment 1 [1] of 88%. For the same substance, the Mutated/Wild type (%) of cyclic AMP produced, TSH 0.03 ng/mL, Experiment 2 [1] was 83%, the Mutated/Wild type (%) of cyclic AMP produced, TSH 0.1 ng/mL, Experiment 1 [1] was 87% and the Mutated/Wild type (%) of cyclic AMP produced, TSH 0.1 ng/mL, Experiment 2 [1] was 84%. The Mutated/Wild type (%) of cyclic AMP produced, TSH 0.3 ng/mL, Experiment 1 [1] was 80%, the Mutated/Wild type (%) of cyclic AMP produced, TSH 0.3 ng/mL, Experiment 2 [1] was 75% and the Mutated/Wild type (%) of cyclic AMP produced, TSH 1 ng/mL, Experiment 1 [1] was 70%. It also gave a Mutated/Wild type (%) of cyclic AMP produced, TSH 1 ng/mL, Experiment 2 [1] of 60%, a Mutated/wild type (%) of cyclic AMP produced; TSH 3 ng/mL; Experiment 1 [1] of 66% and a Mutated/wild type (%) of cyclic AMP produced; TSH 3 ng/mL; Experiment 2 [1] of 64%. For the same substance, the % inhibition of TSH stimulation; TSH (2) [2] was 12%, the Cyclic AMP produced, mutated TSHR, TSH 0.01 ng/mL [2] was 8.2 pmol/mL and the Cyclic AMP produced, mutated TSHR, TSH 0.03 ng/mL [2] was 8.92 pmol/mL. The Cyclic AMP produced, mutated TSHR, TSH 0.1 ng/mL [2] was 8.24 pmol/mL, the Cyclic AMP produced, mutated TSHR, TSH 0.3 ng/mL [2] was 15.7 pmol/mL and the Cyclic AMP produced, mutated TSHR, TSH 1 ng/mL [2] was 30.2 pmol/mL. For the same substance, the Cyclic AMP produced, mutated TSHR, TSH 3 ng/mL [2] was 43.9 pmol/mL, the Cyclic AMP produced; TSH 3 ng/mL [2] was 83.7 pmol/mL and the Cyclic AMP produced; TSH (2) [2] was 73.2 pmol/mL. It also gave a Mutated/Wild type (%) of cyclic AMP produced, TSH 0.01 ng/mL [2] of 582%, a Mutated/Wild type (%) of cyclic AMP produced, TSH 0.03 ng/mL [2] of 448% and a Mutated/Wild type (%) of cyclic AMP produced, TSH 0.1 ng/mL [2] of 149%. The Mutated/Wild type (%) of cyclic AMP produced, TSH 0.3 ng/mL [2] was 97%, the Mutated/Wild type (%) of cyclic AMP produced, TSH 1 ng/mL [2] was 68% and the Mutated/wild type (%) of cyclic AMP produced; TSH 3 ng/mL [2] was 82%. For the same substance, the Mutated/wild type (%) of cyclic AMP produced; TSH (2) [2] was 78%, the Mutated/wild type (%) of cyclic AMP produced; TSH 3 ng/mL ([2]; record 2) was 110% and the Cyclic AMP produced, TSH 0.01 ng/mL [3] was 8.29 pmol/mL. For the same substance, the Cyclic AMP produced, TSH 0.03 ng/mL [3] was 12.6 pmol/mL, the Cyclic AMP produced, TSH 0.1 ng/mL [3] was 28.8 pmol/mL and the Cyclic AMP produced, TSH 0.3 ng/mL [3] was 66.2 pmol/mL. It also gave a Cyclic AMP produced, TSH 1 ng/mL [3] of 87.9 pmol/mL, a Cyclic AMP produced; TSH 3 ng/mL [3] of 110 pmol/mL and a Mutated/Wild type (%) of cyclic AMP produced, TSH 0.01 ng/mL [3] of 207%. For the same substance, the Mutated/Wild type (%) of cyclic AMP produced, TSH 0.03 ng/mL [3] was 189%, the Mutated/Wild type (%) of cyclic AMP produced, TSH 0.1 ng/mL [3] was 147% and the Mutated/Wild type (%) of cyclic AMP produced, TSH 0.3 ng/mL [3] was 147%. The Mutated/Wild type (%) of cyclic AMP produced, TSH 1 ng/mL [3] was 116%, the Mutated/wild type (%) of cyclic AMP produced; TSH 3 ng/mL [3] was 126% and the Cyclic AMP produced, TSH 0.01 ng/mL, mutated TSHR [4] was 3.05 pmol/mL. It also gave a Cyclic AMP produced, TSH 0.03 ng/mL, mutated TSHR [4] of 4.12 pmol/mL, a Cyclic AMP produced, TSH 0.1 ng/mL, mutated TSHR [4] of 9.61 pmol/mL and a Cyclic AMP produced, TSH 0.3 ng/mL, mutated TSHR [4] of 35.6 pmol/mL. The Cyclic AMP produced, TSH 1 ng/mL, mutated TSHR [4] was 66.2 pmol/mL, the Cyclic AMP produced, TSH 3 ng/mL, mutated TSHR [4] was 80.4 pmol/mL and the Mutated/Wild type (%), TSH 0.01 ng/mL [4] was 134%. For the same substance, the Mutated/Wild type (%), TSH 0.03 ng/mL [4] was 109%, the Mutated/Wild type (%), TSH 0.1 ng/mL [4] was 101% and the Mutated/Wild type (%), TSH 0.3 ng/mL [4] was 124%. It also gave a Mutated/Wild type (%), TSH 1 ng/mL [4] of 86%, a Mutated/Wild type (%), TSH 3 ng/mL [4] of 86% and a Cyclic AMP produced, TSH 0.01 ng/mL, Experiment 1 [5] of 1.93 pmol/mL. It also gave a Cyclic AMP produced, TSH 0.01 ng/mL, Experiment 2 [5] of 1.56 pmol/mL, a Cyclic AMP produced, TSH 0.03 ng/mL, Experiment 1 [5] of 2.88 pmol/mL and a Cyclic AMP produced, TSH 0.03 ng/mL, Experiment 2 [5] of 2.76 pmol/mL. The Cyclic AMP produced, TSH 0.1 ng/mL, Experiment 1 [5] was 7.51 pmol/mL and the Cyclic AMP produced, TSH 0.1 ng/mL, Experiment 2 [5] was 7.04 pmol/mL.
